Reference: a protein production outcome set (Wang et al. 2014)

Assay: label from the status in PepcDB records
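Further: failed if final PepcDB status was selected cloned or expressed and not failed if soluble or beyond.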

Row | Sequence | protein production
1 | MSPIALNLLQSTPYQVGGSLAANHPSYSQREADRELLAQLRAGKFCYVFNCRQMGKSSLRVRAMHQLQQDGVVCVSIDITSLGTEADPQKWYNGIITQLYLGLPLAGKVALKPWLREREQLSPIQKLREFVETIILQTIGDRQIVIFIDEIDKVLSLPFSLDDFFSYIRFCYNQRADDHEYNRLSFALFGVATPSDLIDNKTQTPFNIGQAIALTGFTLTEALPLSAGLPVDEVSAREILGEILAWTGGQPFLTQKVCELVAEALQKGDLDCQSQTIATTIAQLIEEKIIRHWESNDEPVHFRTIGDRLLKDQARSGQLLGLYQEILHKGAIPADDSVEQTVLRLTGLVVKVKGQLRPYNPIYQAIFNAQWVSKELNKLRPYGTNLQAWINSNYQDSSRLLRGEALREALAWASSKNLSGVDYRYLNASQNQEQEASLAANQILTQANVKAKRMISFGIVVLMMSLGGSAIALSQAYFATLKQQRSQQGTELQRLGTSAQRQFTFDQIPGLVTALEAGNQLHHLVKADETLSQYPATSPLVSLQQILSQIAEKNVLTGHRDGVTSVAISSHKNLIASASRDGTVHLWTPQGEFLREFTGHTGSIYRVDFSPNGKIFATAGQDQTVKIWDLDGNLLQTLKGHQDSVYSVSFSPDGEILASTSRDRTVRLWHWRSGKTLAVLGGHTKSVDDAQFSPDGQTLVSVCRDGQIRLWDLDGNLIRQFGLPEVAFFGVNWHPNGNLLAVAADDGTVRLWTPQGEIKATLSGHDEFVTRVVFTPDGKQLFSSSSNGSVIHWSTSGKMLKKYQGYPEAIFGLALASNGALLAIGAENNLVKVWDMSPKSDLVNLNLPAVLGAVAENAKTNTIALAMENEPLILFNTKNRSRQFLSDASQNLDRLKFSADGQWLLGQRGRQWQLWQLQTKSQLLKTWRTDISRVYDVDLRTTPTSPQWAIAMATGSGEVQLWQGTKNNQTSGNQSQGVPIELNDPIVLALGNSIQRKEPIRSVSLHPTLPQLAAGDEQGNLTLWNFDGTLIRSIVAHGDRLNQLQYSPNGKYLLSAGREGTAKIWSVEGQLLHTLKSDPLPIDQIAISPDSQWIATAASDGMVRLWDQQGNLRGEFTSTSGSLLGLDFNRQGQWLLAVAQNGDLQSWPVTPEKERLRQLVEQGCDWLRDYLATEKQPAQTYSLEFCQPTGN | failed
2 | MILVPIDISDKEFTERIISHVESEARIDDAEVHFLTVIPSLPYYASLGMAYTAELPGMDELREGSETQLKEIAKKFSIPEDRMHFHVAEGSPKDKILALAKSLPADLVIIASHRPDITTYLLGSNAAAVVRHAECSVLVVR | not failed
3 | MNSFWLSLAPVLWLTIIAIPVGILFNAAIVFGLYSIILLGIVIYHIHTLYCLEQWLHHSDLSYATVPDRSGLWGVVFARLARFVRRHDKERLGLNTSLERLQRATSALPEGIVILGDKDQIEWCNSAAERHLGLNLEMDAGQHITRMVRQVRFVAYLDMGDFSKPFLLNQSRLRDVLLSIQIVPYGDREKLLISQDVTRFEKIEIMRRDFVANVSHELRTPLTVIGGFLETLLEENKISGEMEKNALRLMSDQAIRMRRLVEDLLTLSRLENAGNNLTEEQVDVVKLLQGLYQEAQSLSAGRHVISLNLASHAMLLGSEDELRSAFENLISNAVRYTPESGIISLNWVVENGKGLFYVQDSGIGIEPNHIPRLTERFYRVDRSRSRETGGTGLGLAIVKHVLNRHQASMEITSQPGAGSIFRIWFPSNRVLPAETAPVISSSPEHTKQNSAA | failed
4 | MITLKQALSLSQDELETLKNEIDAKVRASDLNAYIKAPSLNGASAKGVPILIKDNISVKGWEITCSSKILEGYVAPYHASVMENLHQNSMAGFGLSNMDEFAMGSTTESSCYGITKNPRDKNRVPGGSSGGSAAAVAGGLAVAALGSDTGGSIRQPASYCGCVGLKPTYGRVSRYGLIAYCSSFDQIGPITQNVEDASILFDAISGYDSKDSTSANLKPTQTFKNLNRDKRFKIAVLMDHIKDASNEVQLAYENTLKALKEMGHEIVEKKMLDSHYQISIYYIISMAEASSNLARFDGVRYGRRAQNIKDLKELYLKSRSEGFGDEVKRRIMLGNFVLSSGYYDAYYLKAQQMRLIIKEQYNKIFEEVDLIFTPVAPTSAHLFNYHASPLEMYLSDIYTIGANLSGLPALSLPVAKDPLGLPIGMQFIAKAFDEQSLLDVSYALEQELDLKLD | failed
5 | MDLALAPETLARWQFGITTVYHFLFVPLTISLAALTAGLQTAWVRTEKEKYLRATKFWGKLFLINIAMGVVTGIVQEFQFGMNWSDYSRFVGDVFGAPLAFEALIAFFFESTFIGLWIFGWDKLPKKIHLACIWMVSIGTLLSAYFILAANSWMQHPVGYRINEEKGRAELTDFWQVLTQNTTLNQVFHSFSAAFLTGGAFMVGIAAFHLMRKKHIPVMRTSLRLGLVTLAVGGLLTAVSGDTLGKVMYEQQPMKMAAAEALWDGEKPAPFSVFAYGDVDKGHNKVALEVPGLLSFLAHSDFESYVPGINDTNKALQEQFGPGDYKPIVPVAYWGFRWMIGFGMASFSLGLLGLWLTRKRFLLPPALRTGEDEVPHLVLLKKPLGARLTRMYWLLALWTMAFPLIANSWGWIFTEMGRQPWVVYGVMQTRDAVSPGVSTAEVIISMSVFTLLYAVLAVIEVKLLAKYVKAGPPELTEADLNPPTKIGGDLRDADKPMAFSY | failed
6 | LEPRKKAEEALRKSEERFAKAFRMAPVPSLVLYGDDLQALDINQAFSETFGYQAEELLGESTVACGLWQDGGAERLGELLAQSGSVRNVQLRLQHKDRNGLDCLVSAEAVSLNEQDCVLVALLDIS | not failed
7 | MHAQTKDLTPIKGIRYYYPPDDAVLVFKDEKERIHYGGMPVPLLEDDFARLDGEPSYDEVGRGVYQALRSNPDCILCDKYAALLRDAYPHYLAELASNAIMIDSKDVEVPYLDRKIACLKVLALLEPQNPALPLEIGRVFLDRGMRLSALHLSTVSIYRAEHFLNRAHTLAPDDRNINRYLGEAYYLLGKYDEAVGFWRKATTTDEPEAERLRERIERISAGNVPLIPPVDYLEAIGAAFACNQTGEYEESIAILQDILMDPVFSEEFPIPEIHCVIGKGFTALDMPKYAEAEFRQALVMDPAHEEARALLATIAAA | failed
8 | MNSFSSKNPEGCSLKVLIKYLLKLSVVPFLIGLGGFIVFVSLEILYQLSDLIVRHRVGIEKLFLMLYYYLPYFVAMGVPVGVLLAIFWTFSRLSEERELMAIQVHGISQKNLIVPFLILGALLSIAVFFLSDQIVPEYQSKAEEAMSKYVLKKPEVFVVENVISKIGDDQYFYVEKYDERTSTMWNVVIFRYGHEETIVTAKRVQKKGNDWYLFDGNYYTVDKDGFLKLDVHFSEMKLDITEDIEKLLRVGKTPKEMTGKELKEKIEFFKKVGVKPSPWVVELHSRYANSLTPIVIVLVGVPLSLLFQLRSKSWGVIFTFVLVVLYQGSGAWLSAMGKENLLNPVLAPWIPNIVFTIVGTLLFILLDTFFAYRITEFLSRLFFVAFIFTVSSLFSSQVVIVSDRMEKFPEEMVFHGSVEIAYKDMTVQASEATIQLTEEGKAKKLEASGGVIYRKADTILMGEHLIFYLENEKSVLTHIRGSTVLEIEKEKKKIYLSGEDLTSEGSRTIVDMGSISTCSETPPHYKLKARYIEIKENDYLLAKDVVFYLLEIPLFYQPIFFTSLSDKPQPFSVEVGVGNNPHLKTSYNVSYPSGLLYFSTKSVLSGGLSKELNWNHKMGSWSLNLDYKESTSHSVLVKIFDSKNTFLFSQKNEERIHQFERKEKILNGSLNVVLRKESDGEDSYILPRVTVKKVSVKTGVGTFSVDSFNHETRIEDQEKRNSGSVSLSFRSVPFLLFQSVSVSTTGKYLFENQNLDERTSYLKTDSIWDFQNLSLGKFLVLDDKIYAGVYRSNEDGYRVGNLFTTTLRVPLGPFSFESYYKLFTVSGENLRKFSQNESKNEVDLKVSFSYENFKSSLETTYDFLEKEFSDPYLKTSYSFKTGDITHTVDSTTRFVLDEISRSYTTWNFQQRMGAFLNRFYFTYYYREPHVKYVEDQMRIYGKNFLFMENPRITTYTKLSVDPFELDEFWIRGTFKKGESTHSLKMSYSSDNLEFSYQTKNGDPALEISFSLKDWNVEKFSLSVEKALHCLGTKISTSFGRNFTLESFSILFFIRDFPNSGIGFDTEEGIGLNVF | failed
9 | MSVIKIEKALKLDKVIFVDVRTEGEYEEDHILNAINMPLFKNNEHNEVGTIYKMQGKHEAIQKGFDYVSYKLKDIYLQAAELALNYDNIVIYCARGGMRSGSIVNLLSSLGVNVYQLEGGYKAYRNFVLEY | not failed
10 | MKTIIRQPQLYRFLKYCNESNLDKTVLDCGAGGDLPPLSIFVEDGYKTYGIEISDLQLKKAENFSRENNFKLNISKGDIRKLPFKDESMSFVYSYGTIFHMRKNDVKEAIDEIKRVLKPGGLACINFLTTKDERYNKGEKIGEGEFLQLERGEKVIHSYVSLEEADKYFKDMKVLFKEDRVVERINDGLKIKQGYVDYIAEKFSKSIL | not failed
11 | MGKALLIVNPSSGKEKGKTYQGKTEEVLKKRYDEVEVRLTEKAGDATEFASWASEQGFDAVIAMGGDGTLNETINGLAIHEKRPDFGFIPLGTVNDLARSVGIPLKPEKAIQALEKAKAIPMDIGRIGDQYFMNVLAIGMIAQAVDQVSVEQKTKFGSVAYFLEGLKAFNRNELLHFKLEYDEEVWEGEAALVVAGLTKSVGGMESWAPDAKIDDGYLHVVVLTKLGLLDAANMIPQLIRGNLKNSDGVVYIKTKKLTIDASGDDLSINVDGDPGPGVPAEIEVLGSHLNILAPKKSSQKRFGPFILKK | failed
12 | MKKYFITIMILLFGTLILAACQNSDEADNYEPPKVDLKDQIPIILIHGSGGNASSLDKMADQLMNEYRSSNEALTMTVNSEGKIKFEGKLTKDAKRPIIKFGFEQNQATPDDWSKWLKIAMEDLKSRYGFTQMDGVGHSNGGLALTYYAEDYAGDKTVPTLRKLVAIGSPFNDLDPNDNGMDLSFKKLPNSTPQMDYFIKNQTEVSPDLEVLAIAGELSEDNPTDGIVPTISSLATRLFMPGSAKAYIEDIQVGEDAVHQTLHETPKSIEKTYWFLEKFKTDETVIQLDYK | failed
13 | MKLTPKELDKLMLHYAGELAKKRKEKGIKLNYVEAVALISAHIMEEARAGKKTAAELMQEGRTLLKPDDVMDGVASMIHEVGIEAMFPDGTKLVTVHTPIEANGKLVPGELFLKNEDITINEGKKAVSVKVKNVGDRPVQIGSHFHFFEVNRCLDFDREKTFGKRLDIASGTAVRFEPGEEKSVELIDIGGNRRIFGFNALVDRQADNESKKIALHRAKERGFHGAKSDDNYVKTIKE | failed
14 | MLKKGNEMKAVIVYASVHHGNTKKIEEAMASVISADVIDVTRKIKPDLSGYDVIGFVSGVYFHTFHEGIKKCIEENMSSKGQKVFLVATCGLGYRDYTKGMKDTLAKKDVLCMGSFQCRGWDTYGIFGKIGGIAKKHPNDRDLKEAQEFVLKTVCKTNNLEHHHHHH | failed
15 | KNFNPPTRRNWESNYFGMPLQDLVTAEKPIPLFVEKCVEFIEDTGLCTEGLYRVSGNKTDQDNIQKQFDQDHNINLVSMEVTVNAVAGALKAFFADLPDPLIPYSLHPELLEAAKIPDKTERLHALKEIVKKFHPVNYDVFRYVITHLNRVSQQHKINLMTADNLSICFWPTLMRPDFENREFLSTTKIHQSVVETFIQQCQFFFYNGEIVE | not failed
16 | MGHHHHHHSHMNSAEQTVTWLITLGVLESPKKTISDPEGFLQASLKDGVVLCRLLERLLPGTIEKVYPEPRSESECLSNIREFLRGCGASLRLELLFPPSQPPQHLVTTILLSASTFDANDLYQGQNFNKVLSSLVTLNKVTADIGLGSDSVCARPSSHRIKSFDSLGSQSLHTR | failed
17 | MGVNSQKSQGEDVSPDSNIETKEGTYVGLADTHTIEVTVDNEPVSLDITEESTSDLDKFNSGDKVTITYEKNDEGQLLLKDIERANLEHHHHHH | failed
18 | MRGLSRNSGAAAIFAILLILAVHNWSVAVSSQSTEFAGDFPPFETECRGTIAECSVSAALGDGGDLFYGGGEMGEEFEMDSEINRRILATRRYISYGALRRNTIPCSRRGASYYNCRRGAQANPYSRGCSAITRCRRS | failed
19 | MNEDLAVIVYTSGTTGNPKGVMITYENIKTNMEGVRAVDLVTETDVILAMLPYHHIMPLCFTLILPMYMGVPIVLLTEISSASLLKALQENRVTVILGVPRVWEMLDKAIMTKINQSSLAKFMFKMASKINSMSIRKMLFSKVHKQFGGNIRLMVSGGAKIDKNILEDFRTMGFCAIQGYGMTETAPIITFNVPGRERSDSAGLEHHHHHH | failed
